This note sets out measurements from publication PMC8125234, “Cardiolipin Stabilizes and Increases Catalytic Efficiency of Carnitine Palmitoyltransferase II and Its Variants S113L, P50H, and Y479F” (International Journal of Molecular Sciences, 2021).

Values joined by “and” are separate entries in the source; they are usually repeats but may differ in a detail not shown here. Equal values may be shown once.

Substrate in data set [1]: C[N+](C)(C)C[C@H](O)CC(=O)[O-]
In words: Determination of the kinetic parameters kcat and KM. The class given is biochemical, human. As to conditions: L-carnitine varied, absence of CL, 25 °C. The protocol: Before activity measurements, the storage buffer of the enzymes was replaced with assay buffer (50 mM KH2PO4, 120 mM KCl, 1 mM EDTA-Na4) using vivaspin turbo 4 tubes (Satorius Stedim biotech GmbH, Göttingen, Germany) at 4 °C. The pH of assay buffer was adjusted with KOH to 7.4. The storage buffer was diluted at least 1:500 in assay buffer. In addition, before each experimental set up, the protein samples were centrifuged at 16,000× g for 5 min at 4 °C to remove any micro-aggregates. After that, the protein concentration was determined using bicinchoninic acid (BCA) protein assay kit (Thermo Fisher Scientific GmbH, Berlin, Germany). The enzyme activity of recombinant CPT II was performed following Rufer et al. with modifications described elsewhere. […] After pre-conditioning the mixture to 25 °C for 2 min, the reaction was started by adding 15 nM of recombinant enzyme. The reverse reaction of CPT II was detected with the enzyme activity assay. CPT II catalyzed the transfer of fatty acid residue from Pal-CoA to L-carnitine with release of CoA and Pal-carnitine. The released CoA was then detected by the reaction of the free thiol group with DTNB, forming 5-mercapto-(2-nitrobenzoic acid). This compound has a molar extinction coefficient of 13,600 M^−1 cm^−1 at a wavelength of 410 nm, and its formation was followed spectroscopically. […] The slope of the progress curve was used to determine the reaction velocity.
It is assumed that the reaction catalyzed by CPT II represents a ping-pong mechanism or compulsory order ternary-complex mechanism.
The kinetic parameters were determined by evaluating the obtained v/S characteristic according to the Michaelis–Menten Equation (1). The […] kcat was calculated using Equation (2):(1) v=Vmax∗[S]/KM+[S] (2) kcat=Vmax/cenzyme

Data set [2] is described as follows: Onset of aggregation by scattered light back reflection during heating ramp. It counts as physicochemical. The conditions noted are these: assay buffer; heating ramp 15 °C to 80 °C. The protocol:
Supplementary materials can be found at https://www.mdpi.com/article/10.3390/ijms22094831/s1, Figure S1: Scattered light back reflection as measure for aggregation during the heating ramp from 15 °C to 80 °C of CPT II WT (black) and the variants P50H (red), S113L (blue) and Y479F (green) in assay buffer (magenta). The light scattering data were obtained simultaneously with nanoDSF data using the back reflection technology in a Prometheus NT.48 device. The unfolding of proteins leads to display of hydrophobic regions of the protein on the surface, which is followed by hydrophobic interaction of the protein molecules resulting in aggregation events. These aggregates are then detected via light scattering. […] The data allow the detection of onset of aggregation (Tagg) which differs clearly among the variants. The Tagg for WT is 38 °C, Y479F is 37 °C, S113L is 35 °C and P50H is 32 °C. […] Figure S2: The first derivatives of the transition curves of WT and the variants resulting from the ratio 350/330 nm were plotted against the temperature. The black, red, blue and green solid lines show the curves of WT and variants P50H, S113L and Y479F measured in assay buffer, respectively. The black, red, blue and green dashed lines show the maxima of the values of the first derivatives of the ratio 350 nm/330 nm of WT and variants P50H, S113L and Y479F, respectively. Figure S3: The effect of amino acid exchange in absence and presence of n-octyl-β-d-glucopyranoside (β-OG) on the stability of CPT II (1 mg/mL) assessed by nanoDSF. The TM of WT (37 °C) in buffer was used as reference value (ΔTM = 0 °C) to determine the ΔTM for the variants and the ΔTM for WT and variants in presence of β- OG. Error bars are SD derived from three independent experiments. Table S1. Comparison of the mean values of the half-lives (t1/2) of CPT II WT and the variants at 30 °C with the half-lives at 37, 40 or 42 °C. The differences of the half-lives for each CPT II enzyme between 37 and 40 or 42 °C as well as 40 and 42 °C are not significant. Number of experiments for each variant (n ≥ 3). Table S2. Comparison of the mean values of the half-lives (t1/2) between CPT II WT and the variants Y479F, S113L and P50H at 30, 37, 40 or 42 °C. n ≥ 3. Table S3. […] Comparison of the ∆TM-values of CPT II WT and the variants Y479F, S113L and P50H in buffer or in presence of 0.25 mM cardiolipin or 1% n-octyl-β-d-glucopyranoside (β-OG) assessed by nanoDSF (n ≥ 3). […] Comparison of the transition temperatures (TM) of WT and the variants Y479F, S113L and P50H in buffer with of 0.25 mM cardiolipin or 1% n-octyl-β-d-glucopyranoside (β-OG) assessed by nanoDSF (n ≥ 3). […]

A short description of data set [3]: nanoDSF thermostability of recombinant CPT II enzymes in assay buffer. It counts as physicochemical. The conditions noted are these: for TM in Buffer: assay buffer, 1 mg/mL protein, nanoDSF; for ∆TM in Buffer: reference TM of WT in buffer (ΔTM = 0 °C). The procedure:
The protein stability was investigated applying nano differential scanning fluorimetry (nanoDSF) using a protein concentration of 1 mg/mL in assay buffer. […] The heating rate has been set to 1 °C per min. A heating ramp from 15 to 95 °C was determined. The nanoDSF data were obtained using a Prometheus NT.48 device. First derivatives were calculated using PR.ThermControl software (NanoTemper Technologies GmbH, Munich, Germany). Experiments were performed at least three times independently as double determination.
Background: In DSF a fluorescence change marks the thermal transition of the protein.

B1: CPT II WT (Homo sapiens) (protein)
chain: SAGSGPGQYLQRSIVPTMHYQDSLPRLPIPKLEDTIRRYLSAQKPLLNDGQFRKTEQFCKSFENGIGKELHEQLVALDKQNKHTSYISGPWFDMYLSARDSVVLNFNPFMAFNPDPKSEYNDQLTRATNMTVSAIRFLKTLRAGLLEPEVFHLNPAKSDTITFKRLIRFVPSSLSWYGAYLVNAYPLDMSQYFRLFNSTRLPKPSRDELFTDDKARHLLVLRKGNFYIFDVLDQDGNIVSPSEIQAHLKYILSDSSPAPEFPLAYLTSENRDIWAELRQKLMSSGNEESLRKVDSAVFCLCLDDFPIKDLVHLSHNMLHGDGTNRWFDKSFNLIIAKDGSTAVHFEHSWGDGVAVLRFFNEVFKDSTQTPAVTPQSQPATTDSTVTVQKLNFELTDALKTGITAAKEKFDATMKTLTIDCVQFQRGGKEFLKKQKLSPDAVAQLAFQMAFLRQYGQTVATYESCSTAAFKHGRTETIRPASVYTKRCSEAFVREPSRHSAGELQQMMVECSKYHGQLTKEAAMGQGFDRHLFALRHLAAAKGIILPELYLDPAYGQINHNVLSTSTLSSPAVNLGGFAPVVSDGFGVGYAVHDNWIGCNVSSYPGRNAREFLQCVEKALEDMFDALEGKSIKS
notes: made in house; host or cells: Escherichia coli BL21Gold DE
In general, Km refers to the concentration of substrate that gives half-maximal velocity. For orientation: kcat means the number of substrate molecules converted per active site and unit of time at saturation. By kcat/Km is commonly meant the second-order rate constant that governs catalysis at low substrate concentration. As for B1, in data set [1] (other: WT), the Michaelis constant (Km) worked out at 15.1 ± 3.4 mM, the turnover number (kcat) was found to be 149 ± 11.1 s⁻¹ and the catalytic efficiency (kcat/Km) was determined as 9800 ± 1600 M⁻¹ s⁻¹. The “Onset of aggregation (Tagg)” value in data set [2] is 38 °C. Further, in data set [3], the “TM in Buffer” value was 36.9 ± 1.0 °C and 37 °C; the “∆TM in Buffer” value was found to be 0.0 ± 1.0 °C.

B2: CPT II variant Y479F (Homo sapiens; Y479F) (protein)
chain: SAGSGPGQYLQRSIVPTMHYQDSLPRLPIPKLEDTIRRYLSAQKPLLNDGQFRKTEQFCKSFENGIGKELHEQLVALDKQNKHTSYISGPWFDMYLSARDSVVLNFNPFMAFNPDPKSEYNDQLTRATNMTVSAIRFLKTLRAGLLEPEVFHLNPAKSDTITFKRLIRFVPSSLSWYGAYLVNAYPLDMSQYFRLFNSTRLPKPSRDELFTDDKARHLLVLRKGNFYIFDVLDQDGNIVSPSEIQAHLKYILSDSSPAPEFPLAYLTSENRDIWAELRQKLMSSGNEESLRKVDSAVFCLCLDDFPIKDLVHLSHNMLHGDGTNRWFDKSFNLIIAKDGSTAVHFEHSWGDGVAVLRFFNEVFKDSTQTPAVTPQSQPATTDSTVTVQKLNFELTDALKTGITAAKEKFDATMKTLTIDCVQFQRGGKEFLKKQKLSPDAVAQLAFQMAFLRQFGQTVATYESCSTAAFKHGRTETIRPASVYTKRCSEAFVREPSRHSAGELQQMMVECSKYHGQLTKEAAMGQGFDRHLFALRHLAAAKGIILPELYLDPAYGQINHNVLSTSTLSSPAVNLGGFAPVVSDGFGVGYAVHDNWIGCNVSSYPGRNAREFLQCVEKALEDMFDALEGKSIKS
notes: as for B1
With B2, in data set [1] (other: Y479F), the Km was found to be 17.4 ± 4.4 mM, the kcat is 140 ± 18.5 s⁻¹ and the specificity constant (kcat/Km) was 8100 ± 1100 M⁻¹ s⁻¹. Further, the “Onset of aggregation (Tagg)” value in data set [2] turned out to be 37 °C. In data set [3], the “TM in Buffer” value is 36.2 ± 1.2 °C and the “∆TM in Buffer” value was -0.74 ± 1.2 °C.

B3: CPT II variant S113L (Homo sapiens; S113L) (protein)
chain: SAGSGPGQYLQRSIVPTMHYQDSLPRLPIPKLEDTIRRYLSAQKPLLNDGQFRKTEQFCKSFENGIGKELHEQLVALDKQNKHTSYILGPWFDMYLSARDSVVLNFNPFMAFNPDPKSEYNDQLTRATNMTVSAIRFLKTLRAGLLEPEVFHLNPAKSDTITFKRLIRFVPSSLSWYGAYLVNAYPLDMSQYFRLFNSTRLPKPSRDELFTDDKARHLLVLRKGNFYIFDVLDQDGNIVSPSEIQAHLKYILSDSSPAPEFPLAYLTSENRDIWAELRQKLMSSGNEESLRKVDSAVFCLCLDDFPIKDLVHLSHNMLHGDGTNRWFDKSFNLIIAKDGSTAVHFEHSWGDGVAVLRFFNEVFKDSTQTPAVTPQSQPATTDSTVTVQKLNFELTDALKTGITAAKEKFDATMKTLTIDCVQFQRGGKEFLKKQKLSPDAVAQLAFQMAFLRQYGQTVATYESCSTAAFKHGRTETIRPASVYTKRCSEAFVREPSRHSAGELQQMMVECSKYHGQLTKEAAMGQGFDRHLFALRHLAAAKGIILPELYLDPAYGQINHNVLSTSTLSSPAVNLGGFAPVVSDGFGVGYAVHDNWIGCNVSSYPGRNAREFLQCVEKALEDMFDALEGKSIKS
notes: as for B1
As to B3, in data set [1] (other: S113L), the Km was 15.5 ± 2.3 mM, the kcat is 144 ± 5 s⁻¹ and the kcat/Km turned out to be 9300 ± 1400 M⁻¹ s⁻¹. Besides, the “Onset of aggregation (Tagg)” value in data set [2] was 35 °C. Besides, the “∆TM in Buffer” value in data set [3] was -3.1 ± 0.7 °C.
